In publication PMC11629141:

Experiments:
[1] = biological target: 6G11 (BI‐1206), full‐length antibody containing the PGLALA Fc mutations (human); assay: BLI; 6G11 (5 µg/mL) loaded on Protein A tips; original or mutated S2B scFv 500-7.8 nM in 1:2 dilutions; association and dissociation 180 s each
[2] = biological target: 6G11 (BI‐1206), full‐length antibody containing the PGLALA Fc mutations (human); assay: ELISA; 6G11 coated (5 µg/mL, MaxiSorp, overnight 4°C); scFv 500 to 0.19 nM, 1 h RT; detection with StrepTactin-HRP

Chain of 6G11 (BI‐1206), full‐length antibody containing the PGLALA Fc mutations (human) (heavy, as listed by the source, chain 1 of 2): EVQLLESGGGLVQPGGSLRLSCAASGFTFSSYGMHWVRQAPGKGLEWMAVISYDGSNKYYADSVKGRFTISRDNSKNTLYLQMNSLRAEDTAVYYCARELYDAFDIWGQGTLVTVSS
Chain of 6G11 (BI‐1206), full‐length antibody containing the PGLALA Fc mutations (human) (light, as listed by the source, chain 2 of 2): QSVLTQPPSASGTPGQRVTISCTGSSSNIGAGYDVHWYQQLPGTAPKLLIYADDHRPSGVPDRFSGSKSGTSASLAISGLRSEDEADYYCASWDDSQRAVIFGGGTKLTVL

Binder	fold decrease in affinity against the original S2B [1]	EC50 [2]	also measured
S2B R101A scFv, solitary (scFv, V domains shown) VH: AVTLDESGGGLQTPGGGLSLVCKASGFTFSSYSMVWVRQAPSKRLEWVAGIYSSATWTYYAPAVKGRATISRDNGQSTVRLQLNDLRAEDTGTYFCAKTSASGWTAYSASAIDAWGHGTEVIV VL: ALTQPSSVSANPGETVKITCSGGSSYYGWYQQKSPGSAPVTVIYSNDKRPSDIPSRFSGSTSGSTATLTITGVQADDEAVYFCGGYDSNIHGGIFGAGTTLTVL	6 fold	–	–
S2B W104A scFv, solitary (scFv, V domains shown) VH: AVTLDESGGGLQTPGGGLSLVCKASGFTFSSYSMVWVRQAPSKRLEWVAGIYSSATWTYYAPAVKGRATISRDNGQSTVRLQLNDLRAEDTGTYFCAKTSRSGATAYSASAIDAWGHGTEVIV VL: ALTQPSSVSANPGETVKITCSGGSSYYGWYQQKSPGSAPVTVIYSNDKRPSDIPSRFSGSTSGSTATLTITGVQADDEAVYFCGGYDSNIHGGIFGAGTTLTVL	10 fold	–	–
S2B Y52A scFv, solitary (scFv, V domains shown) VH: AVTLDESGGGLQTPGGGLSLVCKASGFTFSSYSMVWVRQAPSKRLEWVAGIASSATWTYYAPAVKGRATISRDNGQSTVRLQLNDLRAEDTGTYFCAKTSRSGWTAYSASAIDAWGHGTEVIV VL: ALTQPSSVSANPGETVKITCSGGSSYYGWYQQKSPGSAPVTVIYSNDKRPSDIPSRFSGSTSGSTATLTITGVQADDEAVYFCGGYDSNIHGGIFGAGTTLTVL	–	–	fold decrease in binding against the original S2B [1]: 4 fold

Second part, led by results:

fold decrease in affinity against the original S2B [1]	EC50 [2]	Binder	also measured
–	28.7 nM	S2B scFv (blocking anti‐6G11 scFv clone 2), solitary (scFv, V domains shown) VH: AVTLDESGGGLQTPGGGLSLVCKASGFTFSSYSMVWVRQAPSKRLEWVAGIYSSATWTYYAPAVKGRATISRDNGQSTVRLQLNDLRAEDTGTYFCAKTSRSGWTAYSASAIDAWGHGTEVIV VL: ALTQPSSVSANPGETVKITCSGGSSYYGWYQQKSPGSAPVTVIYSNDKRPSDIPSRFSGSTSGSTATLTITGVQADDEAVYFCGGYDSNIHGGIFGAGTTLTVL	–
–	3.9 nM	S2N scFv (non‐blocking anti‐6G11 scFv clone 2), solitary (scFv, V domains shown) VH: AVTLDESGGGLQTPGGGLSLVCKASGFSFSDRGMQWVRQAPGKGLEWVAGIDDDDNNTWYATAVKGRATISRDNGQSTVRLQLNSLRAEDTGTYYCAKTPTSYYWGAAEIDAWGHGTEVIV VL: ALTQPSSVSANPGETVKITCSGSSGSYGWYQQKAPGSAPVTVIYDNNNRPSNIPSRFSGSLSGSTNTLTITGVQADDEAVYFCGSYEGSSYVGIFGAGTTLTVL	–
